Results published in the supplement of paper PMC9170038.

Tested on: MS2 coat protein
Assay: apparent KD of MS2 coat protein; designed switch direction (-1 OFF switch, 1 ON switch): -1; higher = weaker reporter binding
In short: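 Transcription of designed RNA switches on Illumina chips was done by stalled E. coli RNA polymerase. SNAP-549-labelled MS2 coat protein was then titrated in doubling steps from 0.7 or 1.5 nM to 3 µM, with steps of 0.8–1.5 h at the lowest and 10–20 min at the highest concentration. The per-design median over clusters of curve-fitted normalised fluorescence is reported as apparent KD.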

[1] = Eterna round: R95, input ligand: FMN 200 uM
[2] = Eterna round: R95, input ligand: microRNA oligo, concentration not stated
[3] = Eterna round: R95, input ligand: none

Sequence | apparent KD of MS2 coat protein [1] | apparent KD of MS2 coat protein [2] | apparent KD of MS2 coat protein [3] | apparent KD of MS2 coat protein (input ligand: FMN 200 uM) | apparent KD of MS2 coat protein (input ligand: none) | apparent KD of MS2 coat protein (input ligand: microRNA oligo, concentration not stated)
GAUAGGACGUGGUCAGGUAACAUGAGGAUCACCCAUGUAGGUCUAGGAACAAGCUUUUUGAAAGCUCGUCUUAUAAA [JR_SV3TOV1_Sub056] (puzzle: Sensor v3, turn-off variant 1) | 17.4 nM | 18.9 nM | 21.2 nM | – | – | –
UUUCCUGCGCGGGUUUUUUACAUGAGGAUCACCCAUGUCCUCUGCUUGUCUUGUCUUGGGCUUGUUUCGGGUUCGGG [-18.4, -40.2 kcal, A 8%] (Eterna round: R97, puzzle: Sensor, turn-off variant 1) | – | – | – | 635 nM | 1190 nM | –
AGUACUAACACGAAAGUGUUAGUACAAUAAGCUAGUGGAACAUGAGGAUCACCCAUGUCCUCAUUAGCUCGUCUUAG [Mat - Sensor v3 - Turn-off var 2 - D35] (puzzle: Sensor v3, turn-off variant 2) | 15.4 nM | 39.7 nM | 15.1 nM | – | – | –
AUGCGUGGCUAGGAUAUUGAGGAAUUUAGCCAGCAAGAAGGAGCCACAUGAGGAUCACCCAUGUGGUGAACCUC [jl-ex6-4.61 ViennaUCT mod] (Eterna round: R97, puzzle: Exclusion 6) | – | – | – | 13.2 nM | 30.6 nM | –
GGCACACAUGAGGAUCACCCAUGUGAGGAUAUGAGGCGAUCGUCGAUAGACGAUAGCCUUAGAAGGCACAUGCC [Mat - Exclusion 1 - Eli Mod - D11] (Eterna round: R97, puzzle: Exclusion 1) | – | – | – | 45.2 nM | 21.2 nM | –
AGGCGUGCUGAGGAUAUACUACCGGGUGCGAUAGUAGAAGGUAGCACAUGAGGAUCACCCAUGUGGUCAGAUGC [Qureaor] (puzzle: Exclusion 6) | 56.3 nM | 20 nM | 23.6 nM | – | – | –
UCGUGGUUACGCUGCAGUUGCCUGAGCGGAGGCUCUGUGACAUGAGGAUCACCCAUGUAGCUUUUUGCUCAUCUUAA [JR_SV3TOV2_Sub040] (puzzle: Sensor v3, turn-off variant 2) | 25.2 nM | 39.9 nM | 24.6 nM | – | – | –
AUUGAUGUUGAGGAUAUGCUUUUAUUUGUUCUUGCAGAAGGCGAUACAUGAGGAUCACCCAUGUUCAUGGAAGU [JR_E6_Sub090] (puzzle: Exclusion 6) | – | 39.7 nM | – | – | – | –
ACAUGAGGAUCACCCAUGUCCGGCUGGUCUGUCUCGGCUGUCGAGGAUAUAGCACGGUAUCCGCGCUAGAAGGCGGGAGCCGGU [Aenatbe mod 87] (Eterna round: R96, puzzle: Exclusion NG 3) | – | – | – | 216 nM | 42.8 nM | 29 nM
CAUACUGAAGUUAGGAUAUUCGGACGAAUACGGAUGGAGAAGGGACAUGAGGAUCACCCAUGUAGAUAGUAAAG [EX-4 Malc #13] (puzzle: Brourd's mod of Exclusion 4) | 20.1 nM | 20.7 nM | 19.8 nM | – | – | –
GUAAACGCAGAGGAUAUUUCAGAUCAAAGCUGCAAAGAAGGCUGCACAUGAGGAUCACCCAUGUGGUCUUCAAG [Mat - Exclusion 6 - JL Mod - D10] (Eterna round: R97, puzzle: Exclusion 6) | – | – | – | 297 nM | 24.7 nM | –
CAGUACUGAGGAUAUACAUGAGGAUCACCCAUGUGCACCAGCUAGGAUACUAGCAAAAGUAGAAGGCAGUACUG [Mat - Exclusion 3 - Eli Mod - D19] (Eterna round: R97, puzzle: Exclusion 3) | – | – | – | 118 nM | 16.1 nM | –
